Laboratory results from paper PMC2191977 (The Journal of Experimental Medicine, 1995).

Target: T1, B7 L200A (mouse, UniProt Q00609 38-306, L200A)
T1 sequence (looked up): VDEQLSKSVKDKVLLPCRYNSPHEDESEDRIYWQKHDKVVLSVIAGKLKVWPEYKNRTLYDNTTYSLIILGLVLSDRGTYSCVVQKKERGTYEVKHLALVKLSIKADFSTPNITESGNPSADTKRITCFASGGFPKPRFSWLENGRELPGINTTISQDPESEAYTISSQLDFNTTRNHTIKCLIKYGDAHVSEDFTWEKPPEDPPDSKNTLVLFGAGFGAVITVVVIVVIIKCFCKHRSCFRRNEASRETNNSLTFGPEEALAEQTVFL
Assay: flow cytometry on cells

- % wild-type B7 binding (normalised to anti-B7 mAb 10.16A.1): 53%
- MF (mean fluorescence, control subtracted): 28 MF
B1: CD28Ig (Fc fusion, mouse, UniProt P31041 20-150, looked up)
chain: NKILVKQSPLLVVDSNEVSLSCRYSYNLLAKEFRASLYKGVNSDVEVCVGNGNFTYQPQFRSNAEFNCDGDFDNETVTFRLWNLHVNHTDIYFCKIEFMYPPPYLDNERSNGTIIHIKEKHLCHTQSSPKL
